Laboratory results as given in article PMC3462001.

Molecular target: Gab1 (UniProt Q9QYY0)
Assay: co-immunoprecipitation, immunoblot
Settings: reference: wild-type PAR3 with PAR1b; sites S144,S873

With “PAR3 (from UniProt Q8TEW0) PAR3 S144A/S873A with PAR1b” the “binding against the reference” value was “stronger”.
